Test results: publication PMC7589778 (Viruses, 2020)

B1: IN-CTD222 with a deletion of 15 C-terminal residues, C-terminal His-tag (domain or fragment)
chain: NFRVYYRDSRDPVWKGPAKLLWKGEGAVVIQDNSDIKVVPRRKAKIIRDYGK
notes: source: E. coli BL21(DE3), purified (Ni-NTA, Mono S); not shown: His6, C-terminal, kept
B2: HIV-1 integrase catalytic core domain (deletion of the NTD and the CTD), C-terminal His-tag (domain or fragment)
chain: MHGQVDCSPGIWQLDCTHLEGKVILVAVHVASGYIEAEVIPAETGQETAYFLLKLAGRWPVKTVHTDNGSNFTSTTVKAACWWAGIKQEFGIPYNPQSQGVIESMNKELKKIIGQVRDQAEHLKTAVQMAVFIHNFKRKGGIGGYSAGERIVDIIATDIQTKE
modifications: homodimer; mature mitochondrial form (19 specific + 576 shared residues); HA-tag left out
B3: Human mitochondrial LysRS with a C-terminal HA-tag (enzyme)
chain: not shown
modifications: homodimer; mature mitochondrial form (19 specific + 576 shared residues); HA-tag left out
B4: C-terminal domain of HIV-1 integrase starting at residue 213, C-terminal His-tag (domain or fragment)
chain: LQKQITKIQNFRVYYRDSRDPVWKGPAKLLWKGEGAVVIQDNSDIKVVPRRKAKIIRDYGKQMAGDDCVASRQDED
modifications: homodimer; mature mitochondrial form (19 specific + 576 shared residues); HA-tag left out
B5: HIV-1 integrase with a deletion of the NTD, C-terminal His-tag (domain or fragment)
chain: MHGQVDCSPGIWQLDCTHLEGKVILVAVHVASGYIEAEVIPAETGQETAYFLLKLAGRWPVKTVHTDNGSNFTSTTVKAACWWAGIKQEFGIPYNPQSQGVIESMNKELKKIIGQVRDQAEHLKTAVQMAVFIHNFKRKGGIGGYSAGERIVDIIATDIQTKELQKQITKIQNFRVYYRDSRDPVWKGPAKLLWKGEGAVVIQDNSDIKVVPRRKAKIIRDYGKQMAGDDCVASRQDED
modifications: homodimer; mature mitochondrial form (19 specific + 576 shared residues); HA-tag left out

What was measured:
Assay in all cases: AlphaScreen or HTRF
Conditions in all cases: both partners purified
[1] = target: B3
[2] = target: Human mitochondrial LysRS with a C-terminal HA-tag (human, UniProt Q15046-2 1-625)
[3] = target: T1, Full-length integrase from HIV-1 with a C-terminal His-tag (HIV-1)
T1 construct: source: E. coli BL21(DE3), purified (Ni-NTA, Mono S); not shown: His6, C-terminal, kept

## B1
[1]
  Kd: 142 nM

## B2
[2]
  Kd: > 400 nM

## B3
[3]
  Kd: 2.6 nM

## B4
[2]
  Kd: 190 nM

## B5
[2]
  Kd: 3 nM
